Publication PMC9352680, “A comprehensive thermodynamic model for RNA binding by the Saccharomyces cerevisiae Pumilio protein PUF4”

T1: PUF4 RNA-binding domain (Saccharomyces cerevisiae, UniProt P25339 537-888)
T1 sequence: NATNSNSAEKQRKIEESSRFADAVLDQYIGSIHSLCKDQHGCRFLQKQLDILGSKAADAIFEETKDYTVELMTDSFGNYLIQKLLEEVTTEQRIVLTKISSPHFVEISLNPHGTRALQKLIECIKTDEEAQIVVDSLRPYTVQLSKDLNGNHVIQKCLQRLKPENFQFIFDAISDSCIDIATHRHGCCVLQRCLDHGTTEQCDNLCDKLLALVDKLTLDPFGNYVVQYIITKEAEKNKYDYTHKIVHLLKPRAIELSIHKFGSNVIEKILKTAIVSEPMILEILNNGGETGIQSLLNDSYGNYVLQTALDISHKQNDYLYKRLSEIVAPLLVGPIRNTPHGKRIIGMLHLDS


Each binder was assayed against T1, PUF4 RNA-binding domain (assay: Mg; RNA-MaP; 20 mM Na-HEPES pH 7.4, 30 mM KOAc, 0.75 mM MgCl2, 0.1% Tween-20, 5% glycerol, 0.1 mg/mL BSA, 2 mM DTT; 25 C; 0.0125-409.6 nM protein). Details: tags: N-His6-TEV cleaved; C-SNAP kept, Cy3B-labelled; label: tethered on chip by stalled RNA polymerase.

Binder	Kd [nM]
UCUCUUUGUAUUAUUAUCUCUUCUCUU (ssRNA) [Ie_S1_P5E.1_K5.1_C5.1_H5.1_A5.1_F5.1_[+10TCTCT]_T5.1]	8.17
UCUCUUUGUAUUAUUCCCUAUCUCUU (ssRNA) [Ie_S1_P5E.1_K5.1_C5.1_H5.1_A5.1_F5.1_[+9CCCT]_T5.1]	16.2
UCUCUUUGUAUUAUUAUCCUCUCUU (ssRNA) [Ie_S1_P5E.1_K5.1_C5.1_H5.1_A5.1_F5.1_[+10TCC]_T5.1]	6.07
Ib_S2_P3E.1_K3.1_C3.1_H3.1_[A4G]_A3.1_F3.1_[A8T]_T3.1 (ssRNA) RNA: UUUGAUUAAUAUGAUAUCGUUCUUUCUUGUGUAUUUUCUUUCUCGAUAUCAUAUUAAUCUUU	8.99
Ia_S2_P3E.1_K3.1_C3.1_H3.1_[G2C]_A3.1_F3.1_T3.1 (ssRNA) RNA: UUUGAUUAAUAUGAUAUCGUUCUUUCUUCUAUAUAUUCUUUCUCGAUAUCAUAUUAAUCUUU	473
Ic_S2_P3E.1_K3.1_C3.1_H3.1_A3.1_[T5A]_F3.1_[T7C]_T3.1 (ssRNA) RNA: UUUGAUUAAUAUGAUAUCGUUCUUUCUUGUAAACAUUCUUUCUCGAUAUCAUAUUAAUCUUU	327
Ib_S2_P3E.1_K3.1_C3.1_H3.1_A3.1_[T5C]_F3.1_[T7C]_T3.1 (ssRNA) RNA: UUUGAUUAAUAUGAUAUCGUUCUUUCUUGUACACAUUCUUUCUCGAUAUCAUAUUAAUCUUU	22.4
Ib_S2_P3E.1_K3.1_C3.1_H3.1_A3.1_[T5C]_F3.1_[T7A]_T3.1 (ssRNA) RNA: UUUGAUUAAUAUGAUAUCGUUCUUUCUUGUACAAAUUCUUUCUCGAUAUCAUAUUAAUCUUU	58.4
Ie_S2_P3E.2_K3.1_C3.2_H3.1_[+1T]_A3.1_F3.1_T3.2 (ssRNA) RNA: UUUGAUUAAUAUGAUAUCGUUCUUUCUCUUUGUAUAUAUAUUCUUUCUCGAUAUCAUAUUAAUCUUU	1.11
UCUCUUUGUAUUAUUAUUCCUCUCUU (ssRNA) [Ie_S1_P5E.1_K5.1_C5.1_H5.1_A5.1_F5.1_[+10TTCC]_T5.1]	4.65
UCUCUUUGUAUUAUUUCUCAUCUCUU (ssRNA) [Ie_S1_P5E.1_K5.1_C5.1_H5.1_A5.1_F5.1_[+9TCTC]_T5.1]	16.3
UCUCUUUGUAUUAUUAUUUCUCUU (ssRNA) [Ie_S1_P5E.1_K5.1_C5.1_H5.1_A5.1_F5.1_[+10TT]_T5.1]	6.42
UCUCUUUGUAUUAUUUUCCUAUCUCUU (ssRNA) [Ie_S1_P5E.1_K5.1_C5.1_H5.1_A5.1_F5.1_[+9TTCCT]_T5.1]	22.3
UCUCUUUGUAUUAUUUCUCUAUCUCUU (ssRNA) [Ie_S1_P5E.1_K5.1_C5.1_H5.1_A5.1_F5.1_[+9TCTCT]_T5.1]	14
Ie_S2_P3E.2_K3.1_C3.2_[+-2CCC]_H3.1_A3.1_F3.1_T3.2 (ssRNA) RNA: UUUGAUUAAUAUGAUAUCGUUCUUUCUCCCCUUGUAUAUAUAUUCUUUCUCGAUAUCAUAUUAAUCUUU	0.969
Ie_S2_P3E.2_K3.1_C3.2_H3.1_[+1CCT]_A3.1_F3.1_T3.2 (ssRNA) RNA: UUUGAUUAAUAUGAUAUCGUUCUUUCUCUUCCUGUAUAUAUAUUCUUUCUCGAUAUCAUAUUAAUCUUU	1.05
Ie_S2_P3E.2_K3.1_C3.2_[+-1CCC]_H3.1_A3.1_F3.1_T3.2 (ssRNA) RNA: UUUGAUUAAUAUGAUAUCGUUCUUUCUCUCCCUGUAUAUAUAUUCUUUCUCGAUAUCAUAUUAAUCUUU	0.662
Ie_S2_P3E.2_K3.1_C3.2_[+-2CTC]_H3.1_A3.1_F3.1_T3.2 (ssRNA) RNA: UUUGAUUAAUAUGAUAUCGUUCUUUCUCCUCUUGUAUAUAUAUUCUUUCUCGAUAUCAUAUUAAUCUUU	0.846
Ie_S2_P3E.2_K3.1_C3.2_H3.1_[+1CTT]_A3.1_F3.1_T3.2 (ssRNA) RNA: UUUGAUUAAUAUGAUAUCGUUCUUUCUCUUCUUGUAUAUAUAUUCUUUCUCGAUAUCAUAUUAAUCUUU	1.32
Ie_S2_P3E.2_K3.1_C3.2_H3.1_[+1TCT]_A3.1_F3.1_T3.2 (ssRNA) RNA: UUUGAUUAAUAUGAUAUCGUUCUUUCUCUUUCUGUAUAUAUAUUCUUUCUCGAUAUCAUAUUAAUCUUU	1.12
Ie_S2_P3E.2_K3.1_C3.2_[+-2TCT]_H3.1_A3.1_F3.1_T3.2 (ssRNA) RNA: UUUGAUUAAUAUGAUAUCGUUCUUUCUCUCUUUGUAUAUAUAUUCUUUCUCGAUAUCAUAUUAAUCUUU	1.02
Ie_S2_P3E.2_K3.1_C3.2_[+-2TCC]_H3.1_A3.1_F3.1_T3.2 (ssRNA) RNA: UUUGAUUAAUAUGAUAUCGUUCUUUCUCUCCUUGUAUAUAUAUUCUUUCUCGAUAUCAUAUUAAUCUUU	0.933

Binder	Kd [nM]
Ie_S2_P3E.2_K3.1_C3.2_H3.1_[+1TTT]_A3.1_F3.1_T3.2 (ssRNA) RNA: UUUGAUUAAUAUGAUAUCGUUCUUUCUCUUUUUGUAUAUAUAUUCUUUCUCGAUAUCAUAUUAAUCUUU	1.33
Ie_S2_P3E.2_K3.1_C3.2_[+-2CCT]_H3.1_A3.1_F3.1_T3.2 (ssRNA) RNA: UUUGAUUAAUAUGAUAUCGUUCUUUCUCCCUUUGUAUAUAUAUUCUUUCUCGAUAUCAUAUUAAUCUUU	1.07
UCUCUUUGUAUUAUUAUCUCUCUU (ssRNA) [Ie_S1_P5E.1_K5.1_C5.1_H5.1_A5.1_F5.1_[+10TC]_T5.1]	4.34
Ie_S2_P3E.2_K3.1_C3.2_[+-2CTCT]_H3.1_A3.1_F3.1_T3.2 (ssRNA) RNA: UUUGAUUAAUAUGAUAUCGUUCUUUCUCCUCUUUGUAUAUAUAUUCUUUCUCGAUAUCAUAUUAAUCUUU	1.08
Ie_S2_P3E.2_K3.1_C3.2_H3.1_[+1CTCT]_A3.1_F3.1_T3.2 (ssRNA) RNA: UUUGAUUAAUAUGAUAUCGUUCUUUCUCUUCUCUGUAUAUAUAUUCUUUCUCGAUAUCAUAUUAAUCUUU	0.882
Ie_S2_P3E.2_K3.1_C3.2_[+-2TTCC]_H3.1_A3.1_F3.1_T3.2 (ssRNA) RNA: UUUGAUUAAUAUGAUAUCGUUCUUUCUCUUCCUUGUAUAUAUAUUCUUUCUCGAUAUCAUAUUAAUCUUU	0.819
Ie_S2_P3E.2_K3.1_C3.2_[+-2CCCT]_H3.1_A3.1_F3.1_T3.2 (ssRNA) RNA: UUUGAUUAAUAUGAUAUCGUUCUUUCUCCCCUUUGUAUAUAUAUUCUUUCUCGAUAUCAUAUUAAUCUUU	0.468
Ie_S2_P3E.2_K3.1_C3.2_[+-1CTCT]_H3.1_A3.1_F3.1_T3.2 (ssRNA) RNA: UUUGAUUAAUAUGAUAUCGUUCUUUCUCUCUCUUGUAUAUAUAUUCUUUCUCGAUAUCAUAUUAAUCUUU	0.703
Ie_S2_P3E.2_K3.1_C3.2_[+-1CCTC]_H3.1_A3.1_F3.1_T3.2 (ssRNA) RNA: UUUGAUUAAUAUGAUAUCGUUCUUUCUCUCCUCUGUAUAUAUAUUCUUUCUCGAUAUCAUAUUAAUCUUU	0.786
Ie_S2_P3E.2_K3.1_C3.2_[+-1TTCC]_H3.1_A3.1_F3.1_T3.2 (ssRNA) RNA: UUUGAUUAAUAUGAUAUCGUUCUUUCUCUUUCCUGUAUAUAUAUUCUUUCUCGAUAUCAUAUUAAUCUUU	1.28
Ie_S2_P3E.2_K3.1_C3.2_[+-2CCTC]_H3.1_A3.1_F3.1_T3.2 (ssRNA) RNA: UUUGAUUAAUAUGAUAUCGUUCUUUCUCCCUCUUGUAUAUAUAUUCUUUCUCGAUAUCAUAUUAAUCUUU	0.683
UCUCUUUGUAUUAUUCCCUUAUCUCUU (ssRNA) [Ie_S1_P5E.1_K5.1_C5.1_H5.1_A5.1_F5.1_[+9CCCTT]_T5.1]	17.6
Ie_S2_P3E.2_K3.1_C3.2_[+-2CC]_H3.1_A3.1_F3.1_T3.2 (ssRNA) RNA: UUUGAUUAAUAUGAUAUCGUUCUUUCUCCCUUGUAUAUAUAUUCUUUCUCGAUAUCAUAUUAAUCUUU	1.07
Ie_S2_P3E.2_K3.1_C3.2_H3.1_[+1TT]_A3.1_F3.1_T3.2 (ssRNA) RNA: UUUGAUUAAUAUGAUAUCGUUCUUUCUCUUUUGUAUAUAUAUUCUUUCUCGAUAUCAUAUUAAUCUUU	1.22
Ie_S2_P3E.2_K3.1_C3.2_[+-1CC]_H3.1_A3.1_F3.1_T3.2 (ssRNA) RNA: UUUGAUUAAUAUGAUAUCGUUCUUUCUCUCCUGUAUAUAUAUUCUUUCUCGAUAUCAUAUUAAUCUUU	0.923
UCUCUUUGUAUUAUUAUUCUCUCUU (ssRNA) [Ie_S1_P5E.1_K5.1_C5.1_H5.1_A5.1_F5.1_[+10TTC]_T5.1]	5.81
Ie_S2_P3E.2_K3.1_C3.2_[+-2TCTCT]_H3.1_A3.1_F3.1_T3.2 (ssRNA) RNA: UUUGAUUAAUAUGAUAUCGUUCUUUCUCUCUCUUUGUAUAUAUAUUCUUUCUCGAUAUCAUAUUAAUCUUU	1.24
Ie_S2_P3E.2_K3.1_C3.2_[+-2CCTCT]_H3.1_A3.1_F3.1_T3.2 (ssRNA) RNA: UUUGAUUAAUAUGAUAUCGUUCUUUCUCCCUCUUUGUAUAUAUAUUCUUUCUCGAUAUCAUAUUAAUCUUU	1.06
Ie_S2_P3E.2_K3.1_C3.2_[+-1TCTCT]_H3.1_A3.1_F3.1_T3.2 (ssRNA) RNA: UUUGAUUAAUAUGAUAUCGUUCUUUCUCUUCUCUUGUAUAUAUAUUCUUUCUCGAUAUCAUAUUAAUCUUU	1.04
Ie_S2_P3E.2_K3.1_C3.2_[+-2CCCTT]_H3.1_A3.1_F3.1_T3.2 (ssRNA) RNA: UUUGAUUAAUAUGAUAUCGUUCUUUCUCCCCUUUUGUAUAUAUAUUCUUUCUCGAUAUCAUAUUAAUCUUU	0.802
UCUCUUUGUAUUAUUCCUCUAUCUCUU (ssRNA) [Ie_S1_P5E.1_K5.1_C5.1_H5.1_A5.1_F5.1_[+9CCTCT]_T5.1]	14.3
UCUCUUUGUAUUAUUUUCCAUCUCUU (ssRNA) [Ie_S1_P5E.1_K5.1_C5.1_H5.1_A5.1_F5.1_[+9TTCC]_T5.1]	19.4
